Results from patent publication US20140193915, “COMPOSITIONS AND METHODS FOR CUSTOM SITE-SPECIFIC DNA RECOMBINASES” (Monsanto Technology, LLC, published 2014).

Assays:
Experiment in all cases: cell_activity; E. coli
[1] = molecular target: T1, sN-TALER III-1 (synthetic); conditions: tags: 6-His
T1 chain: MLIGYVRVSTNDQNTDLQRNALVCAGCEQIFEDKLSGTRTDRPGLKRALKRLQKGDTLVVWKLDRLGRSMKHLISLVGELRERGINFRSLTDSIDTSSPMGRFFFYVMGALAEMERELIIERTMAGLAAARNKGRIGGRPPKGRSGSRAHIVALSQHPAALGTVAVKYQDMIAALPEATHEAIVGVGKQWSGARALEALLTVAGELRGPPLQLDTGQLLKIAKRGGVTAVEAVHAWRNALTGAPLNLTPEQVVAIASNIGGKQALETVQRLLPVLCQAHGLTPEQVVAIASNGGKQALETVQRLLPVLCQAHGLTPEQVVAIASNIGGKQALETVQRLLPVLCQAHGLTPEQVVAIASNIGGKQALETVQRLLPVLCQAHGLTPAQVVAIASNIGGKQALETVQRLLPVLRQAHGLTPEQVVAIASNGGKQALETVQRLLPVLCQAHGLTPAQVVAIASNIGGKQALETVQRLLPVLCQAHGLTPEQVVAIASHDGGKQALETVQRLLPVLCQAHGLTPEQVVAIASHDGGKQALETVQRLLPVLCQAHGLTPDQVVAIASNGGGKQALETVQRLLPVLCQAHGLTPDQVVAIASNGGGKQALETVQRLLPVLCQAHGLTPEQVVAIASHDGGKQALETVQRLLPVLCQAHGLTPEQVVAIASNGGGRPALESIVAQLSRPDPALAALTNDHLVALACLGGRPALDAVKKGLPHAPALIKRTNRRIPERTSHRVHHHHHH
Summary of the method: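 DH5alpha cells co-transformed (heat shock or electroporation) with N-TALER expression and reporter plasmids at ~1:1 mass ratio; reporter alone as control. Plated on chloramphenicol/kanamycin/X-gal, grown 37° C. for 18 to 36 hours; recombination scored by colony colour.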

[2] = molecular target: T2, pN-TALER IV-14 (synthetic)
T2 chain: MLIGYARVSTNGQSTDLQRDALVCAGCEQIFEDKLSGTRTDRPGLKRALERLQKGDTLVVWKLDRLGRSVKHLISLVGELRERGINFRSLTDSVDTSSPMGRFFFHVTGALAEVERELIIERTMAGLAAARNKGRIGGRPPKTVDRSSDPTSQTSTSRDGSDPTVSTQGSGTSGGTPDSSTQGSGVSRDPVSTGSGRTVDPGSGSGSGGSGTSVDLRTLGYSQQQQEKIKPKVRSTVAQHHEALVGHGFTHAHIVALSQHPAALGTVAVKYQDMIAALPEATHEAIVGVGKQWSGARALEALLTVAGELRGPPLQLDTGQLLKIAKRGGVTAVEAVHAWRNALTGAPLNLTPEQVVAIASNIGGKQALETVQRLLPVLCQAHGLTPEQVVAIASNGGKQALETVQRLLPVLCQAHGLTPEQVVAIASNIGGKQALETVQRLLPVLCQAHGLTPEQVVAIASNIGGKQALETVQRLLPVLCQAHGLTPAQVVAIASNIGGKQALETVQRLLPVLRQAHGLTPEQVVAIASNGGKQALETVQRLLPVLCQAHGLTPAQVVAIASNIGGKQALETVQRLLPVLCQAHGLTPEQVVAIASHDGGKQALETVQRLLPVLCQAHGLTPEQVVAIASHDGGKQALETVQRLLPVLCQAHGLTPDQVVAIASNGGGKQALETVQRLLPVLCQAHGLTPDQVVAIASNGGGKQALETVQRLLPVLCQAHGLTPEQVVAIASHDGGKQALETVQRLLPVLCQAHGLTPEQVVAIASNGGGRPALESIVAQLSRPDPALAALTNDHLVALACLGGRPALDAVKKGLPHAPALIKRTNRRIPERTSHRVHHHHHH
Description: (§1) To test for recombination, E. coli DH5alpha cells were co-transformed with different combinations of TALER expression construct and TALER reporter construct pairs (Tables 6 and 7). The N-TALER expression and reporter constructs were in an approximate 1:1 mass ratio during the transformation. The co-transformed bacteria were plated on media with chloramphenicol, kanamycin, and X-gal then incubated at 37° C. for 18 to 36 hours. Control samples consisted of transformations using the reporter construct alone. Control transformants were similarly plated. The bacterial transformation protocol was either heat shock or electroporation per standard molecular biology techniques.
(§2) The N-TALER expression constructs representing the N-TALER chimeras with varying linker lengths were co-transformed with N-TALER reporter constructs with TALER central sequence lengths of 18, 20, 24, 30, 40, and 50 bp (Table 13). […] Recombination did occur, but was less efficient with the pN-TALER IV-14 (linker length of 71 amino acids) with each of the N-TALER reporters tested.

[3] = molecular target: T3, pN-TALER IV-12 (synthetic)
T3 chain: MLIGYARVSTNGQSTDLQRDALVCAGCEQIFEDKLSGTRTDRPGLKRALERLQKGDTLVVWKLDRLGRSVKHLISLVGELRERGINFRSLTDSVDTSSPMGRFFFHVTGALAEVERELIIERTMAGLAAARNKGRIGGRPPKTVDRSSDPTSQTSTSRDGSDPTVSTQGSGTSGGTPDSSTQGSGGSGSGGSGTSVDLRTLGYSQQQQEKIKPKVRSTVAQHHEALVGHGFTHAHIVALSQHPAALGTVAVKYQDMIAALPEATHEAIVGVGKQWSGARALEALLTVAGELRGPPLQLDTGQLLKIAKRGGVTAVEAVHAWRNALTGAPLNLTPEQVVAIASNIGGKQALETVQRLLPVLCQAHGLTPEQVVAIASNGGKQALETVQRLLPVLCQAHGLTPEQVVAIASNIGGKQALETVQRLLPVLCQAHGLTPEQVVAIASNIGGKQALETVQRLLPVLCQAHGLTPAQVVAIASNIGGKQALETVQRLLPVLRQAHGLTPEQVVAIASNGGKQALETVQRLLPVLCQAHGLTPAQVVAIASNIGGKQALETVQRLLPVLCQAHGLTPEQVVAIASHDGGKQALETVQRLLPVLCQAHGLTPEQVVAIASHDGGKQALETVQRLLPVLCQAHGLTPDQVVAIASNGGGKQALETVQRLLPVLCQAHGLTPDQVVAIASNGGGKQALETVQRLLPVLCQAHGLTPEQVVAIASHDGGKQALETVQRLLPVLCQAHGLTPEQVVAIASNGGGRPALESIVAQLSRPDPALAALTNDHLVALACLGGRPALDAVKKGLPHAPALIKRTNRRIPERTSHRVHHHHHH
Description: as §1, §2

B1: Gin18TALE+0 (dsDNA)
DNA 1: AGAAGGTATTTATACCAAAACCATGGTTTACATATAAATACCTTCT
DNA 2: AGAAGGTATTTATATGTAAACCATGGTTTTGGTATAAATACCTTCT
B1 gave an activity [1] of 4.5 score.

B2: Gin20TALE+0 (dsDNA)
DNA 1: AGAAGGTATTTATATCCAAAACCATGGTTTACAGTATAAATACCTTCT
DNA 2: AGAAGGTATTTATACTGTAAACCATGGTTTTGGATATAAATACCTTCT
B2 showed an activity [2] of 3 score and an activity [3] of 1 score.
